{
  "source": "patent US20190016790A1",
  "about": "(MEDICINAL BIOCONVERGENCE RESEARCH CENTER, published 2019)",
  "key": {"[1]": {"target": "T1, recombinant PICP protein (procollagen type I C-terminal propeptide), heterotrimer of two PICP α1 chains and … (human, UniProt P02452 1219-1464; P08123 1120-1366)", "T1 construct": "Biotinylated for the yeast Fab selection; also called recombinant PICP antigen; PIPC; not shown: 8xHis tag conjugated to the N-terminus of the α1 chain; c-Myc tag conjugated to the N-terminus of the α2 chain", "assay": "yeast surface Fab display, MACS and FACS with biotinylated PICP", "experimental": "A method of selecting clones specifically binding to PICP proteins from the yeast Fab library are as follows: Antigen protein PICP and similar protein PIIICP were prepared with purity of 99% or higher by the method of the present invention. The PICP proteins were conjugated to biotin using a kit (EZ-LINKTMSulfo-NHS-LC-Biotinylation kit, Pierce Inc., USA). Thereafter, a procedure of screening the constructed libraries using MACS and FACS and analyzing the induced pool was repeated. Through this, the expression level of antibody Fab and the binding affinity of biotinylated PICP can be analyzed.\nThe biotinylated PICP (500 nM) was conjugated to Fab library expressed on the yeast cell surface at 25° C. for 1 hour. The Fab library incubated with PICP was conjugated with streptavidin-microbead (Miltenyi Biotec Inc., Germany) at 4° C. for 10 minutes, and then clones conjugated with the biotinylated PICP were selected using magnetic-activated cell sorting (MACS). […] Thereafter, FACS procedure was twice repeated using biotinylated PICP with concentrations of 250 nM and 100 nM. […]"}, "[2]": {"target": "T1, recombinant PICP protein (procollagen …)", "assay": "SPR, Biacore 2000, PICP immobilized (185 RU), IgG 6.25-100 nM", "source_text": "Specific experiment conditions are as follows.\nThe affinity was obtained from kinetic rate constants (ka and kd) and equilibrium dissociation constants (KD) using BIA evaluation ver. 3.2 software."}, "[3]": {"target": "T2, recombinant procollagen type III C-terminal propeptide (PIIICP), His-tagged (UniProt P02461 1222-1466)", "T2 construct": "domain: C-terminal propeptide; Made in HEK293F cells in the same way as PICP; also called comparative antigen; not shown: His tag conjugated to the PIIICP protein", "T2 sequence (looked up)": "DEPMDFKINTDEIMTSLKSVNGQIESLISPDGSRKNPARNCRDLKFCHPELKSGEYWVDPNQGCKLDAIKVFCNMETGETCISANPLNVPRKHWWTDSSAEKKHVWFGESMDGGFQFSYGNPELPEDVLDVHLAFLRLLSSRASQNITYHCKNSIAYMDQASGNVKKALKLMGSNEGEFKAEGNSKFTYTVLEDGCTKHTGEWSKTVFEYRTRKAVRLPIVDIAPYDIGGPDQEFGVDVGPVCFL", "assay": "sandwich ELISA, 2D IgG coated at 16 ug/ml as capture antibody, PIIICP titrated, rabbit anti-PICP antibody and goat anti-rabbit IgG-HRP for detection"}, "[4]": {"target": "T2, recombinant procollagen type III …", "assay": "indirect ELISA, PIIICP coated at 2 ug/ml, anti-human IgG-HRP", "experimental": "PICP and PIIICP antigens prepared in <Example 1> were immobilized at a concentration of 2 ug/ml on microtiter plates at room temperature for 1 hour, and blocked with 1×PBST containing 2% skim milk at room temperature for 1 hour. 2D IgG and 4G IgG were serially diluted within a range of 15.625-1000 ng/ml, and added at 100 μl per well to the blocked plates, followed by incubation at room temperature for 1 hour. Human IgG-HRP antibodies (Millipore, 1:2,000) as secondary antibodies were added at 10 μl per well, followed by incubation at room temperature for 1 hour. The incubated microtiter plates were washed three or four times with 1×PBST, and then TMB solution was added at 50 μl per well to conduct a color development reaction at room temperature for 5-10 minutes. The color development reaction was stopped using H₂SO₄ (1 M), and then the absorbance was read at 450 nm using ELISA reader."}, "[5]": {"target": "T1, recombinant PICP protein (procollagen …)", "assay": "indirect ELISA, PICP coated at 2 ug/ml, anti-HA-HRP"}, "[6]": {"target": "T1, recombinant PICP protein (procollagen …)", "assay": "sandwich ELISA, IgG coated as capture antibody, PICP titrated, polyclonal PICP antibody and anti-rabbit-HRP for detection", "experimental": "The binding specificity to PICP by IgG fragment having VH and VL of clones 1 and 2 (referred to as clone IgG and clone 2 IgG) was investigated by sandwich ELISA (FIG. 9).\n2D, 4G, clone 1, clone 2 IgG antibodies as capture antibodies were coated on the microtiter plates, and PICP and PIIICP as antigens were added to each well (100 μl/well) at different concentrations, followed by incubation for 1 hour. After washing with 1×PBST (0.05 Tween 20), detection antibodies (polyclonal PICP antibodies) were diluted with 1×PBST, and added in 100 μl for each, followed by incubation for 1 hour. After washing with 1×PBST, rabbit-HRP (Millipore) antibodies were diluted with 1×PBST, and added in 100 μl for each, followed by incubation for 1 hour. After washing with 1×PBST, TMB solution was added to each well (50 μl/well) to investigate a color development reaction, and then the reaction was stopped by addition of 50 μl of 2N stop solution (H₂SO₄). The absorbance was read at a wavelength of 450 nm using ELISA reader (reference 620 nm)."}, "[7]": {"target": "T3, recombinant PICP α2 chain (c-Myc tag at the N-terminus) (human, UniProt P08123 1120-1366)", "T3 construct": "Co-expressed with the α1 chain in HEK293F cells; also called recombinant procollagen α2 chain; not shown: c-Myc tag at the N-terminus", "T3 sequence": "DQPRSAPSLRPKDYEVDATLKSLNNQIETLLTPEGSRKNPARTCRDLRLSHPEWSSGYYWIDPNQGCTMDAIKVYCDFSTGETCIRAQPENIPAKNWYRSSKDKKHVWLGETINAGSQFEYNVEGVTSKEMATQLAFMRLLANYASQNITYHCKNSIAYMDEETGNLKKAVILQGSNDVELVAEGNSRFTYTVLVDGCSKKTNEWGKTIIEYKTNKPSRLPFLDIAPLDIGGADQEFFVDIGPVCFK", "assay": "Western blot (anti-His, anti-c-Myc) of Ni/NTA-purified recombinant PICP, non-reducing and reducing SDS-PAGE", "experimental": "The pSecTag2A-PICP α1 vector and the pSecTag2A-PICP α2 vector were mixed at a molar ratio of 2:1, and co-transfected into HEK293F cells. The co-transfected cells were cultured for 7 days, and culture supernatants were harvested, and the proteins were isolated and purified by the same method as in example <1-2>. PIIICP protein was also expressed, isolated, and purified by the same method. The sizes and purities of the purified proteins were analyzed using SDS-PAGE and western blotting (anti-His tag, anti-c-Myc tag) in reducing or non-reducing conditions."}},
  "data": [
    {"binder": "clone 1 Fab (Fab, V domains shown) VH: EVQLVESGGGLVQPGGSLRLSCAASGFTFSYYWMSWVRQAPGKGLEWVSTISYGGGGKYYADSVKGRFTISRDNSKNTLYLQMNSLRAEDTAVYYCVRSYGAIPPNTIDYWGQGTLVTVSS VL: DIQMTQSPSSLSASVGDRVTITCRASQGISSDLAWYQQKPGKAPKLLIYAASSLQSGVPSRFSGSGSGTDFTLTISSLQPEDFATYYCQQPYSTPSTFGQGTKVEIK", "values": [
      {"measurement": "binding result", "setting": "[1]", "result": "binds"}
    ]},
    {"binder": "2D IgG (antibody, V domains shown, IgG made from 2D scFv VH and VL in pcDNA3.4 and expressed in 293F cells; Detected with human IgG-HRP; also called IgG containing the variable regions of clone 2D) VH: EVQLLESGGGLVQPGGSLRLSCAASGFTFSSYYMSWVRQAPGKGLEWVSGISPGSGSKYYADSVKGRFTISRDNSKNTLYLQMNSLRAEDTAVYYCARATVPCKGPACYSAYGMDVWGQGTLVTVSS VL: QSVLTQPPSAPGTPGQRVTISCSGSSSNIGNNAVNWYQQLPGTAPKLLIYSNSHRPSGVPDRFSGSKSGTSASLAISGLRSEDEADYYCGSWDASLNGYVFGGGTKLTVLG", "values": [
      {"measurement": "Kd", "setting": "[2]", "result": 11.6, "unit": "nM"},
      {"measurement": "koff", "setting": "[2]", "result": 0.00276, "unit": "s⁻¹"},
      {"measurement": "kon", "setting": "[2]", "result": 237000, "unit": "M⁻¹ s⁻¹"},
      {"measurement": "binding result", "setting": "[3]", "result": "no binding (tested: 100 ng/ml)"}
    ]},
    {"binder": "4G IgG (antibody, V domains shown, IgG made from 4G scFv VH and VL in pcDNA3.4 and expressed in 293F cells; Detected with human IgG-HRP; also called IgG containing the variable regions of clone 4G) VH: EVQLLESGGGLVQPGGSLRLSCAASGFTFSNYYMSWVRQAPGKGLEWVSLISSGNGNKYYADSVKGRFTISRDNSKNTLYLQMNSLRAEDTAVYYCARGSRRCSGAPCYSAYGMDVWGQGTLVTVSS VL: QSVLTQPPSASGTPGQRVTISCTGSSSNIGNNSVTWYQQLPGTAPKLLIYANSQRPSGVPDRFSGSKSGTSASLAISGLRSEDEADYYCGAWDDSLNAYVFGGGTKLTVLG", "values": [
      {"measurement": "Kd", "setting": "[2]", "result": 16.8, "unit": "nM"},
      {"measurement": "koff", "setting": "[2]", "result": 0.00319, "unit": "s⁻¹"},
      {"measurement": "kon", "setting": "[2]", "result": 190000, "unit": "M⁻¹ s⁻¹"},
      {"measurement": "binding result", "setting": "[4]", "result": "no binding (tested: 1000 ng/ml)"}
    ]},
    {"binder": "4G scFv (scFv) EVQLLESGGGLVQPGGSLRLSCAASGFTFSNYYMSWVRQAPGKGLEWVSLISSGNGNKYYADSVKGRFTISRDNSKNTLYLQMNSLRAEDTAVYYCARGSRRCSGAPCYSAYGMDVWGQGTLVTVSSGGGGSGGGGSGGGGSQSVLTQPPSASGTPGQRVTISCTGSSSNIGNNSVTWYQQLPGTAPKLLIYANSQRPSGVPDRFSGSKSGTSASLAISGLRSEDEADYYCGAWDDSLNAYVFGGGTKLTVLG", "values": [
      {"measurement": "EC50 (read off the curve)", "setting": "[5]", "result": "~0.1", "unit": "µg/mL"}
    ]},
    {"binder": "clone 2 IgG (antibody, V domains shown, Chimeric: human Fab VH and VL of yeast clone 2 on mouse IgG2a heavy chain constant domains and mouse kappa light chain) VH: EVQLVESGGGLVQPGGSLRLSCAASGFTFSSYWMSWVRQAPGKGLEWVSVISYDGGNKYYADSVKGRFTISRDNSKNTLYLQMNSLRAEDTAVYYCAKWANDHNSDLNFDYWGQGTLVTVSS VL: DIQMTQSPSSLSASVGDRVTITCRASQGISTDLGWYQQKPGKAPKLLIYAASSLESGVPSRFSGSGSGTDFTLTISSLQPEDFATYYCQQHDSYPTTFGQGTKVEIKR", "values": [
      {"measurement": "binding result", "setting": "[6]", "result": "binds"}
    ]},
    {"binder": "clone 2 Fab (Fab, V domains shown) VH: EVQLVESGGGLVQPGGSLRLSCAASGFTFSSYWMSWVRQAPGKGLEWVSVISYDGGNKYYADSVKGRFTISRDNSKNTLYLQMNSLRAEDTAVYYCAKWANDHNSDLNFDYWGQGTLVTVSS VL: DIQMTQSPSSLSASVGDRVTITCRASQGISTDLGWYQQKPGKAPKLLIYAASSLESGVPSRFSGSGSGTDFTLTISSLQPEDFATYYCQQHDSYPTTFGQGTKVEIK", "values": [
      {"measurement": "binding result", "setting": "[1]", "result": "binds"}
    ]},
    {"binder": "clone 1 IgG (antibody, V domains shown, Chimeric: human Fab VH and VL of yeast clone 1 on mouse IgG2a heavy chain constant domains and mouse kappa light chain; also called clone IgG) VH: EVQLVESGGGLVQPGGSLRLSCAASGFTFSYYWMSWVRQAPGKGLEWVSTISYGGGGKYYADSVKGRFTISRDNSKNTLYLQMNSLRAEDTAVYYCVRSYGAIPPNTIDYWGQGTLVTVSS VL: DIQMTQSPSSLSASVGDRVTITCRASQGISSDLAWYQQKPGKAPKLLIYAASSLQSGVPSRFSGSGSGTDFTLTISSLQPEDFATYYCQQPYSTPSTFGQGTKVEIKR", "values": [
      {"measurement": "binding result", "setting": "[6]", "result": "binds"}
    ]},
    {"binder": "2D scFv (scFv) EVQLLESGGGLVQPGGSLRLSCAASGFTFSSYYMSWVRQAPGKGLEWVSGISPGSGSKYYADSVKGRFTISRDNSKNTLYLQMNSLRAEDTAVYYCARATVPCKGPACYSAYGMDVWGQGTLVTVSSGGGGSGGGGSGGGGSQSVLTQPPSAPGTPGQRVTISCSGSSSNIGNNAVNWYQQLPGTAPKLLIYSNSHRPSGVPDRFSGSKSGTSASLAISGLRSEDEADYYCGSWDASLNGYVFGGGTKLTVLG", "values": [
      {"measurement": "EC50 (read off the curve)", "setting": "[5]", "result": "~0.3", "unit": "µg/mL"}
    ]},
    {"binder": "recombinant PICP α1 chain (8xHis tag at the N-terminus) (other, Co-expressed with the α2 chain in HEK293F cells; also called recombinant procollagen α1 chain; not shown: 8xHis tag at the N-terminus) DDANVVRDRDLEVDTTLKSLSQQIENIRSPEGSRKNPARTCRDLKMCHSDWKSGEYWIDPNQGCNLDAIKVFCNMETGETCVYPTQPSVAQKNWYISKNPKDKRHVWFGESMTDGFQFEYGGQGSDPADVAIQLTFLRLMSTEASQNITYHCKNSVAYMDQQTGNLKKALLLQGSNEIEIRAEGNSRFTYSVTVDGCTSHTGAWGKTVIEYKTTKTSRLPIIDVAPLDVGAPDQEFGFDVGPVCFL", "values": [
      {"measurement": "binding result", "setting": "[7]", "result": "binds"}
    ]}
  ]
}
